B1: Proteasome activator complex subunit 4 (Homo sapiens), Q14997 (parent)
chain: MEPAERAGVGEPPEPGGRPEPGPRGFVPQKEIVYNKLLPYAERLDAESDLQLAQIKCNLGRAVQLQELWPGGLFWTRKLSTYIRLYGRKFSKEDHVLFIKLLYELVSIPKLEISMMQGFARLLINLLKKKELLSRADLELPWRPLYDMVERILYSKTEHLGLNWFPNSVENILKTLVKSCRPYFPADATAEMLEEWRPLMCPFDVTMQKAITYFEIFLPTSLPPELHHKGFKLWFDELIGLWVSVQNLPQWEGQLVNLFARLATDNIGYIDWDPYVPKIFTRILRSLNLPVGSSQVLVPRFLTNAYDIGHAVIWITAMMGGPSKLVQKHLAGLFNSITSFYHPSNNGRWLNKLMKLLQRLPNSVVRRLHRERYKKPSWLTPVPDSHKLTDQDVTDFVQCIIQPVLLAMFSKTGSLEAAQALQNLALMRPELVIPPVLERTYPALETLTEPHQLTATLSCVIGVARSLVSGGRWFPEGPTHMLPLLMRALPGVDPNDFSKCMITFQFIATFSTLVPLVDCSSVLQERNDLTEVERELCSATAEFEDFVLQFMDRCFGLIESSTLEQTREETETEKMTHLESLVELGLSSTFSTILTQCSKEIFMVALQKVFNFSTSHIFETRVAGRMVADMCRAAVKCCPEESLKLFVPHCCSVITQLTMNDDVLNDEELDKELLWNLQLLSEITRVDGRKLLLYREQLVKILQRTLHLTCKQGYTLSCNLLHHLLRSTTLIYPTEYCSVPGGFDKPPSEYFPIKDWGKPGDLWNLGIQWHVPSSEEVSFAFYLLDSFLQPELVKLQHCGDGKLEMSRDDILQSLTIVHNCLIGSGNLLPPLKGEPVTNLVPSMVSLEETKLYTGLEYDLSRENHREVIATVIRKLLNHILDNSEDDTKSLFLIIKIIGDLLQFQGSHKHEFDSRWKSFNLVKKSMENRLHGKKQHIRALLIDRVMLQHELRTLTVEGCEYKKIHQDMIRDLLRLSTSSYSQVRNKAQQTFFAALGAYNFCCRDIIPLVLEFLRPDRQGVTQQQFKGALYCLLGNHSGVCLANLHDWDCIVQTWPAIVSSGLSQAMSLEKPSIVRLFDDLAEKIHRQYETIGLDFTIPKSCVEIAELLQQSKNPSINQILLSPEKIKEGIKRQQEKNADALRNYENLVDTLLDGVEQRNLPWKFEHIGIGLLSLLLRDDRVLPLRAIRFFVENLNHDAIVVRKMAISAVAGILKQLKRTHKKLTINPCEISGCPKPTQIIAGDRPDNHWLHYDSKTIPRTKKEWESSCFVEKTHWGYYTWPKNMVVYAGVEEQPKLGRSREDMTEAEQIIFDHFSDPKFVEQLITFLSLEDRKGKDKFNPRRFCLFKGIFRNFDDAFLPVLKPHLEHLVADSHESTQRCVAEIIAGLIRGSKHWTFEKVEKLWELLCPLLRTALSNITVETYNDWGACIATSCESRDPRKLHWLFELLLESPLSGEGGSFVDACRLYVLQGGLAQQEWRVPELLHRLLKYLEPKLTQVYKNVRERIGSVLTYIFMIDVSLPNTTPTISPHVPEFTARILEKLKPLMDVDEEIQNHVMEENGIGEEDERTQGIKLLKTILKWLMASAGRSFSTAVTEQLQLLPLFFKIAPVENDNSYDELKRDAKLCLSLMSQGLLYPHQVPLVLQVLKQTARSSSWHARYTVLTYLQTMVFYNLFIFLNNEDAVKDIRWLVISLLEDEQLEVREMAATTLSGLLQCNFLTMDSPMQIHFEQLCKTKLPKKRKRDPGSVGDTIPSAELVKRHAGVLGLGACVLSSPYDVPTWMPQLLMNLSAHLNDPQPIEMTVKKTLSNFRRTHHDNWQEHKQQFTDDQLLVLTDLLVSPCYYA

Variants of: B1
Conditions: with h4_human H4C16, P62805

Row | effect of a mutation on the interaction | Variant
1 | disrupting interaction strength | N1716T;F1717S
